Molecular target: T1, Recombinant human his-tagged CD38 protein (human, UniProt P28907 43-300)
T1 construct: not shown: his tag
Experiment: SPR (Biacore T200, 25 C), antibody captured on anti-human Fc CM5 chip, his-tagged human CD38 as analyte, steady state affinity model
Description: Binding kinetics of parent antibody CD38 A2 and variant antibody CD38 A2 SV was measured using surface plasmon resonance (SPR). Kinetic interaction between the parent or variant antibody and a his-tagged CD38 protein were measured at 25° C. using Biacore T200 surface plasmon resonance (GE Healthcare). Anti-human fragment crystallizable region (Fc region) antibody was immobilized on a CM5 sensor chip to approximately 8000 resonance units (RU) using standard N hydroxysuccinimide/N Ethyl-N′-(3-dimethylaminopropyl) carbodiimide hydrochloride (NHS/EDC) coupling methodology. The CD38 A2 parent antibody or CD38 A2 SV variant antibody (2 μg/mL) was captured for 60 seconds at a flow rate of 10 μL/minute. Recombinant human his-tagged CD38 protein was serially diluted in a running buffer of 0.01 M HEPES pH 7.4, 0.15 M NaCl, 3 mM EDTA, 0.05% v/v Surfactant P20 (HBS EP+). All measurements were conducted in HBS-EP+buffer with a flow rate of 30 μL/minute. Steady state affinity model was used to get affinity. The sensorgrams of the CD38 A2 parent antibody and CD38 A2 SV variant antibody are shown in FIGS. 3A and B, respectively, and their corresponding binding kinetics are listed in Table 3 below.

- Kd: 15.6 nM
B1: variant antibody CD38 A2 SV (antibody, V domains shown)
VH: QVQLVESGGGLVKPGGSLRLSCAASGFTFSDDYMSWIRQAPGKGLEWVASVSNGRPTTYYADSVRGRFTISRDNAKNSLYLQMNSLRAEDTAVYYCAREDWGGEFTDWGRGTLVTVSS
VL: QSVLTQPPSASGTSGQRVTISCSGSSSNIGINFVYWYQHLPGTAPKLLIYKNNQRPSGVPDRFSGSKSGNSASLAISGLRSEDEADYYCAAWDDSLSGYVFGSGTKVTVL
notes: also called CD38-A2 SV mutant; CD38 A2 SV variant antibody
